Results from patent US20240034813A1 (Janssen / Centocor, published 2024).

Columns and labels:
[1] = molecular target: T1, recombinant human EGFR/ErbB1/HER1 with C-terminal His tag, Cy5-labeled (human, UniProt P00533 25-645, Cy5 label (reacted with Cy5 Mono NHS Ester; sites not stated)); experiment: competitive TR-FRET (Eu-amivantamab/Cy5-EGFR), EC50 ratio vs Reference Material; Ex. 11 drug product, 6 months at 5 C
T1 construct: Commercial protein; also called Cy5-EGFR; Cy5-labeled EGFR antigen; not shown: C-terminal His tag
From the text: (§1) In this procedure, varying concentrations of unlabeled bispecific EGFR-cMet antibody sample compete with donor fluorophore (Europium (Eu) chelate) labeled bispecific EGFR-cMet antibody for binding to an acceptor fluorophore (Cy5)-labeled EGFR antigen. Excitation of the donor fluorophore results in a transfer of energy to the bound acceptor fluorophore (FRET process). The resultant FRET is detected by emission of light at 665 nm using a microplate reader capable of measuring time-resolved fluorescence. Sample dose response curves are compared to the RM.
(§2) EGFR Binding Materials and Methods. Certified commercial EGFR, a recombinant human EGFR/ErbB1/HER1 with C-terminal His tag is reacted with certified commercial Cy5 Mono NHS Ester to produce Cy5-labeled EGFR. Validated bispecific EGFR-cMet antibody is reacted with certified commercial Europium (Eu) chelate to produce Eu-labeled bispecific EGFR-cMet antibody. […] Fluorescence is then measured by spectrophotometry at 665 nm, plotted against antibody concentration and analyzed by a four-parameter logistic model. The antibody concentration required to obtain half of the maximum fluorescence response (EC50) is determined for RM, assay control and samples. The potencies of assay control and samples are calculated based on the ratio of the sample (or control) and RM EC50 values and reported as a percentage activity relative to the RM.

[2] = molecular target: T1, recombinant human EGFR/ErbB1/HER1 with …; experiment: competitive TR-FRET (Eu-amivantamab/Cy5-EGFR), EC50 ratio vs Reference Material; Ex. 12 drug product with rHuPH20, 6 months at 25 C
From the text: as §1, §2

[3] = molecular target: T1, recombinant human EGFR/ErbB1/HER1 with …; experiment: competitive TR-FRET (Eu-amivantamab/Cy5-EGFR), EC50 ratio vs Reference Material; Ex. 2 Formulation 2 (50 mM histidine), 3 months at 5 C
From the text: as §1, §2

[4] = molecular target: T2, recombinant cMet/HGFR with c-terminal His-tag, Cy5-labeled (UniProt P08581 25-932, limits assumed, Cy5 label (reacted with Cy5 Mono NHS Ester; sites not stated)); experiment: competitive TR-FRET (Eu-amivantamab/Cy5-c-MET), EC50 ratio vs Reference Material; Ex. 2 Formulation 1 (10 mM histidine), 3 months at 25 C
T2 construct: Commercial protein; also called Cy5-c-MET; Cy5-labeled c-MET antigen; not shown: C-terminal His-tag
From the text: as §1, with “(Cy5)-labeled c-MET” for “(Cy5)-labeled EGFR”, “the Reference Material (RM).” for “the RM.”
as §2, with “c-MET Binding” for “EGFR Binding”, “commercial cMet,” for “commercial EGFR,”, “recombinant cMet/HGFR” for “recombinant human EGFR/ErbB1/HER1”, “with c-terminal His-tag” for “with C-terminal His tag”, “Cy5-labeled c-MET.” for “Cy5-labeled EGFR.”, “produce Eu labeled” for “produce Eu-labeled”

[5] = molecular target: T1, recombinant human EGFR/ErbB1/HER1 with …; experiment: competitive TR-FRET (Eu-amivantamab/Cy5-EGFR), EC50 ratio vs Reference Material; Ex. 2 Formulation 3 (acetate), 1 month at 40 C
From the text: as §1, §2

[6] = molecular target: T2, recombinant cMet/HGFR with c-terminal …; experiment: competitive TR-FRET (Eu-amivantamab/Cy5-c-MET), EC50 ratio vs Reference Material; Ex. 11 drug product, 3 months at 25 C
From the text: as §1, with “(Cy5)-labeled c-MET” for “(Cy5)-labeled EGFR”, “the Reference Material (RM).” for “the RM.”
as §2, with “c-MET Binding” for “EGFR Binding”, “commercial cMet,” for “commercial EGFR,”, “recombinant cMet/HGFR” for “recombinant human EGFR/ErbB1/HER1”, “with c-terminal His-tag” for “with C-terminal His tag”, “Cy5-labeled c-MET.” for “Cy5-labeled EGFR.”, “produce Eu labeled” for “produce Eu-labeled”

[7] = molecular target: T2, recombinant cMet/HGFR with c-terminal …; experiment: competitive TR-FRET (Eu-amivantamab/Cy5-c-MET), EC50 ratio vs Reference Material; Ex. 3 acetate formulation, 6 months at 25 C then 5 freeze/thaw cycles
From the text: as §1, with “(Cy5)-labeled c-MET” for “(Cy5)-labeled EGFR”, “the Reference Material (RM).” for “the RM.”
as §2, with “c-MET Binding” for “EGFR Binding”, “commercial cMet,” for “commercial EGFR,”, “recombinant cMet/HGFR” for “recombinant human EGFR/ErbB1/HER1”, “with c-terminal His-tag” for “with C-terminal His tag”, “Cy5-labeled c-MET.” for “Cy5-labeled EGFR.”, “produce Eu labeled” for “produce Eu-labeled”

[8] = molecular target: T2, recombinant cMet/HGFR with c-terminal …; experiment: competitive TR-FRET (Eu-amivantamab/Cy5-c-MET), EC50 ratio vs Reference Material; Ex. 12 drug product with rHuPH20, 3 months at 25 C
From the text: as §1, with “(Cy5)-labeled c-MET” for “(Cy5)-labeled EGFR”, “the Reference Material (RM).” for “the RM.”
as §2, with “c-MET Binding” for “EGFR Binding”, “commercial cMet,” for “commercial EGFR,”, “recombinant cMet/HGFR” for “recombinant human EGFR/ErbB1/HER1”, “with c-terminal His-tag” for “with C-terminal His tag”, “Cy5-labeled c-MET.” for “Cy5-labeled EGFR.”, “produce Eu labeled” for “produce Eu-labeled”

EGFR Binding activity relative to Reference Material (%) [1]: 84% | EGFR Binding activity relative to Reference Material (%) [2]: 54% | EGFR Binding % activity relative to RM [3]: 96% | cMET Binding % activity relative to RM [4]: 94% | EGFR Binding % activity relative to RM [5]: 76% | cMET Binding activity relative to Reference Material (%) [6]: 94% | cMET Binding % activity relative to RM [7]: 84% | cMET Binding activity relative to Reference Material (%) [8]: 81%
B1: amivantamab (bispecific antibody, human IgG1, kappa)
heavy 1: not shown
light 1: not shown
heavy 2: not shown
light 2: DIQMTQSPSSVSASVGDRVTITCRASQGISNWLAWFQHKPGKAPKLLIYAASSLLSGVPSRFSGSGSGTDFTLTISSLQPEDFATYYCQQANSFPITFGQGTRLEIKRTVAAPSVFIFPPSDEQLKSGTASVVCLLNNFYPREAKVQWKVDNALQSGNSQESVTEQDSKDSTYSLSSTLTLSKADYEKHKVYACEVTHQGLSSPVTKSFNRGEC
notes: The samples tested were high concentration (160 mg/mL) formulations, fresh or stored or stressed; also called JNJ-61186372; bispecific EGFR-cMet antibody
